What was measured:
Experiment in all cases: BLI
[1] = target: HA H1 Solomon (A/Solomon Islands/3/2006(H1N1)); details: monovalent Fab
H5 Vietnam = target: H5 Vietnam
H3 Victoria = target: H3 Victoria
H3 Panama = target: H3 Panama
H2 Japan = target: H2 Japan
H1 Caledonia = target: H1 Caledonia

Substance | Kd [1] [nM] | Kd (H5 Vietnam) [pM] | Kd (H3 Victoria) [pM] | Kd (H3 Panama) [pM] | Kd (H2 Japan) [pM] | Kd (H1 Caledonia) [pM]
MEDI8852 unmutated common ancestor (UCA) Fab (wild-type) VH:K58S; VH:V65P; VL:G95P | 50 | – | – | – | – | –
MEDI8852 VH E65P Fab | – | < 1 | < 1 | < 1 | < 1 | < 1
